Changes are numbered by the printed parent chain.
How the values were obtained:
[1] = biological target: T1, Human ANG-2 (huAng2) (human, UniProt O15123 19-496, limits assumed); assay: KinExA equilibrium, alternate model (ref [IgG])
T1 construct: also called human Ang2-biotin
T1 sequence (looked up): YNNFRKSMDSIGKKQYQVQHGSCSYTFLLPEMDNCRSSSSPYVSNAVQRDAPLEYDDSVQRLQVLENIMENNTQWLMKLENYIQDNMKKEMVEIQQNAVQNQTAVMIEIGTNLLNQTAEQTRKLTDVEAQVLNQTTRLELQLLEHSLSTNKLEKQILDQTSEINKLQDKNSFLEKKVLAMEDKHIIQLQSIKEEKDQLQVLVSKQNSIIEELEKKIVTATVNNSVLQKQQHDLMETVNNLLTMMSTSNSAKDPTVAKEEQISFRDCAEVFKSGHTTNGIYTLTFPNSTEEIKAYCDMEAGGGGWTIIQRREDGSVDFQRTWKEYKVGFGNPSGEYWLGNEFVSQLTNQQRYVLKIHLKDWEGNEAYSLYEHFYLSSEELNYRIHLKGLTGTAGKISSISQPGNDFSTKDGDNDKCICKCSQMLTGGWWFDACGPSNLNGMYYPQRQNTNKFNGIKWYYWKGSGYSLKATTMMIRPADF
Description: (§1) Human ANG-2 (huAng2) protein was coated onto UltraLink® Biosupport beads (PIERCE, Rockford, Ill.) at concentrations of 5 mg/mL and 30 mg/mL in coating buffer (50 mM sodium carbonate buffer, pH 9). Coated beads were then separated (gentle pulse spin) from unreacted huAng2 protein solution, and blocked with 1M Tris, pH 8, containing BSA at 10 mg/mL) for approximately 15 minutes at room temperature. After this, the bead slurry was spun to remove the blocking solution, and then the block step was repeated for approximately 2 hours using fresh block buffer, and stored at 4° C. until used. Prior to use, the huAng2-coated beads were transferred to a bead vial, resuspended in approximately 27 mLs of instrument buffer (HBS-P buffer, pH 7.4; contains 10 mM HEPES, 0.15M NaCl, 0.005% P20+0.02% NaN3), and affixed to the KinExA instrument. […] These concentrations of bispecific antibody were chosen to allow measurements to be made under both receptor- and KD-controlled conditions, which would allow for more rigorous estimations of reagent activity and affinity, respectively. Two-fold serial dilutions of huAng2 protein were then titrated across nine of the tubes containing the bispecific solutions, followed by 10-fold-dilutions across two more tubes, leaving one tube as the bispecific-only, “zero” control. […]

[2] = biological target: T1, Human ANG-2 (huAng2); assay: KinExA equilibrium, standard affinity model (ref [Ligand])
Description: as §1

[3] = biological target: T2, mouse Ang2 (mouse, UniProt O35608 19-496, limits assumed); assay: cell-based or functional assay
T2 sequence (looked up): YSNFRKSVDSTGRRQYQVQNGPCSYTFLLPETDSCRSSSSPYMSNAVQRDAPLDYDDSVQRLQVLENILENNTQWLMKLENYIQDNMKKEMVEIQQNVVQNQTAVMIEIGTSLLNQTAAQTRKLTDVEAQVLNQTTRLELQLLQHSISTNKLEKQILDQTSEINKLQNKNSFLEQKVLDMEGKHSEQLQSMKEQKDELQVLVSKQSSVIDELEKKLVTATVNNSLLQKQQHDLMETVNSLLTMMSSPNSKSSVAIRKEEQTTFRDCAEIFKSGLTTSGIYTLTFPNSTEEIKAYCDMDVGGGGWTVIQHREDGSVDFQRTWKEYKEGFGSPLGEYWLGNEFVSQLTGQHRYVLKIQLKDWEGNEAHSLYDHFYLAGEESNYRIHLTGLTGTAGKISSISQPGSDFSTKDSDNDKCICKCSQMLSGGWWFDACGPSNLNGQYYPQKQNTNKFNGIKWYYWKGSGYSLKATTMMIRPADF

[4] = biological target: T3, cyno Ang2 (cyno, UniProt A0A2K5VNX6 19-496); assay: cell-based or functional assay
T3 sequence: T1 sequence (looked up) with E258G, I279V, F284L, I291V, G410A, A468G, D477G

[5] = biological target: T1, Human ANG-2 (huAng2); assay: cell-based or functional assay

Kd [1]: 0.00435 nM
Kd [2]: 0.0233 nM
Mu pTie2 EC50 (nM) [3]: 12.2 nM
Cyno pTie2 EC50 (nM) [4]: 3.47 nM
Hu pTie2 EC50 (nM), Hek293-Tie2 cells [5]: 2.29 nM
B1: BiS3Ab-VEGF H1RK-ANG-2 (bispecific antibody, human IgG1, kappa)
heavy: not shown
light: EIVLTQSPATLSLSPGERATLSCRASQSVHSSYLAWYQQKPGQAPRLLIYGASSRATGIPDRFSGSGSGTDFTLTISRLEPEDFAVYYCQQSYRTPSFGQGTRLEIKRTVAAPSVFIFPPSDEQLKSGTASVVCLLNNFYPREAKVQWKVDNALQSGNSQESVTEQDSKDSTYSLSSTLTLSKADYEKHKVYACEVTHQGLSSPVTKSFNRGEC
notes: Full-length IgG (Fab arm anti-VEGF-A) with an anti-ANG-2 scFv linked to the C-terminus of each heavy chain (BiS3 format); also called BiSAb-VEGF H1RK-ANG-2; Bs3Ab-VEGF-Ang2

— US20210040194A1 (AstraZeneca / MedImmune, published 2021)
